Source: the RNAGym collection of RNA variant scans (doi:10.1073/pnas.2313332121)

B1: TPR t1 (parent)
chain: GACCAAUCUGCCCUCAGAGCUCGAGAACAUCUUCGGAUGCAGAGGAGGCAGGCUUCGGUGGCGCGAUAGCGCCAACGUCCUCAACCUCCAAUGCAUCCCACCACAUGAUGAUGCCUGAAGAGCCUUGGUUUUUUG

Variants of: B1
Assay: polymerase ribozyme fitness, log enrichment relative to wild type (log ratio); higher = more active; in vitro selection for triplet polymerase activity
Procedure, shortened: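 Frozen incubation at −7 °C formed the core of a single, triplicate in vitro selection round applied to PCR-built, transcribed mutant libraries of each subunit of a heterodimeric triplet polymerase ribozyme. Extended constructs were gel-excised, captured with streptavidin beads and amplified by RT-PCR, and input and output libraries were Illumina-sequenced with a filter of ≥10 input reads and ≥1 read per output. Fitness is the logarithm of genotype enrichment relative to wild-type enrichment, with inverse-variance-weighted replicate averaging, and the logarithm is base 2.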

| Variant | polymerase ribozyme fitness (log ratio) |
| --- | --- |
| A29U C72U C98U A111C | -3.77 |
| A29U U59G G120C | -1.14 |
| U30G C102G U112G | -7.15 |
| U30C C97U | -3.64 |
| C31U C62U | -5.22 |
| A29G A41U A46C G63C | -5.41 |
| C34A C53U C114A U129C | -5.56 |
| C34A G35U G48C | -3.95 |
| C31U G57C U106A | -0.497 |
| A29U G61A | -1.45 |
| C28U G57U | -1.3 |
| A29U A43G G61U G113A C123A U126A U134C | -3.47 |
| C31A C40G A46G G63A A111U | -6.15 |
| U33A G127C | -4.76 |
| U33G C70G G113U | -6.56 |
| C28U C49A G113C | -3.97 |
| U32C C79G U81C G113A | -2.36 |
| A29G G120U U132A | -1.63 |
| U33G C104U C123G | -4.29 |
| U32C G48U G69A | -3.8 |
| C34A C70U C79U | -4.29 |
| U32C G52A U78C C101A | -1.13 |
| A29U G42C A66G A119U | -4.64 |
| A29U G63U | -2.58 |

| Variant | polymerase ribozyme fitness (log ratio) |
| --- | --- |
| C28U A74U | -2.33 |
| C31U C40U G45A | -6.8 |
| A29G G61A C89A | -2.41 |
| A29G U132C | -0.924 |
| A29G C49G G71A U125G | -3.8 |
| A29U G35A C56U C72U U96A C98G C115G | -7.16 |
| U32A C73A C97U | -6.06 |
| U30C G47U C53U U54A U133A | -4.89 |
| A29U A37U C40U G71C | -2.78 |
| U32C C104U U112G | 0.174 |
| C31A C40U A50U G60A C101A U106A C115U A119G | -6.82 |
| U33A A46C G69U | -0.918 |
| U32A C40G C56A A84U | -6.15 |
| A29U A75U A83G U112G U133C | -2.19 |
| U32G C62U A105U U112G | -6.91 |
| C34A C124A | -1.1 |
| U32C G69C G128C | -4.73 |
| C31U G48A C73U U106G | -3.4 |
| U32C C73A C85G | -3.02 |
| A29U C115A | -1.59 |
| U32C C49A | -0.089 |
| C34A C101U | -2.53 |
| A29U A46G C88U C97G | -4.71 |
| U33A C89A | -6.86 |

| Variant | polymerase ribozyme fitness (log ratio) |
| --- | --- |
| A29U G127A | -4.12 |
| A29U G58A C115U | -2.3 |
| U32G C53A C64U U109G | -7.34 |
| A29U U78C | -1.79 |
| C31A C72A C104G | -6.29 |
| C28U G48U U78A | -3.25 |
| C34A C72U A100U | -4.44 |
| A29G C101A | -3.99 |
| A29G G71U G110A | -2.82 |
| A29U C40A G52C G110U | -3.01 |
| U33A G61A U87A U133G | -4.05 |
| U33C G45A | -5.98 |
| C34A A83G A100U | -5.18 |
| A29U C72U | -2.19 |
| A29G C115A | -0.195 |
| U32A C56G G77U C99A C123U U125G | -5.41 |
| A29G G45U C64U | -2.76 |
| C28U G45A C70U G113A A118U U131C | -4.94 |
| C31U C56A C73G U106A C124A | 0.239 |
| A29U C40U G60C U131A | -2.41 |
| U32G A41G C70U C114U | -4.09 |
| U32G C56A C97A U109A | -6.23 |
| U33A C82A | -5.5 |
| C31U C70U C72U | -5.69 |

| Variant | polymerase ribozyme fitness (log ratio) |
| --- | --- |
| C28U U38A C79U C104A C124A U133G | -4.38 |
| A29G C123A | -0.494 |
| U33A G117U | -5.29 |
| A29C G57U G120U | -2.96 |
| C34A G39U C56G | -3.08 |
| A29G C73U | -1.55 |
| A29G C88U | -1.2 |
| U32C C62A C82G G120C | -2.66 |
| U33C C49A | -5.36 |
| U32C G52A G61A U125A | -0.743 |
| C34A A105U A121U | -1.99 |
| U33A C102G U112A | -6.38 |
| U32A G120C | -3.07 |
| C31A G77C U112C | -4.36 |
| A29G A37C A74G A111C | -1.06 |
| C31U G47U U112C G120C | -4.82 |
| A29G G48U G93C G110U C123U | -4.77 |
| C28U G52U | -2.88 |
| C31G C80A A105G G113A | -4.57 |
| A29G U55G G63A U131C U133G | -2.37 |
| A29G G69U A95G | -1 |
| A29U C62U | -1.3 |
| C28U U125A | -2.25 |
| A29U C123A | -1.43 |

| Variant | polymerase ribozyme fitness (log ratio) |
| --- | --- |
| C28U G44U U59A C89G | -4.37 |
| U32C G71C C79G U81C G113A | -3.36 |
| C34A A37U A46U A74U G113C | -6.79 |
| C34A C40U C85G | -4.94 |
| A29C C62U C94A | -3.98 |
| U33G G65U C72G A111C A118U | -6.82 |
| C28U G61C U106A G113C | -5.31 |
| A29G G69C G77C | -4.34 |
| C28U G61A U112C U131A | 0.223 |
| U33A G48U U55C U109C A121G C124A G127C | -5.45 |
| U32C G113A U126G U133C | -4.07 |
| U32C U81G | -3.83 |
| U32C U116C | -1.17 |
| U33G U87A | -6.14 |
| C34A C80U | -4.3 |
| A29U A66C | -2.83 |
| U32C C80U A83U C123G U130G | -1.77 |
| A29U U96C | -1.87 |
| A29C C56A G71C U87A C98A C101U G110C | -6.81 |
| C34A A46U | -3.37 |
| C28U A50U | -2.92 |
| C31G C53A G60A C94U U106A | -5.77 |
| U30C G48C C64U U81A U87A C124A | -4.9 |
| U32G U33C A43U A91U C124U | -5.75 |

| Variant | polymerase ribozyme fitness (log ratio) |
| --- | --- |
| U32C C64U | 0.123 |
| A29G G42C G45C C49A U106A | -4.8 |
| C34A G42U C70G U81A C101A | -8.04 |
| U32G U33C A43U A91U | -6.04 |
| A29U C62G U106A | -2.35 |
| A29U G47U C62U | -4.34 |
| U32C A84U | -0.174 |
| U33G G128A | -6.19 |
| U32A G47U C72U A83U | -5.74 |
| U32C U55G C102A | -2.56 |
| C28U G127U | -2.17 |
| A29G G60C U131A | -1.85 |
| A29U G48A U92C C101U C114A | -5.72 |
| U30C G63A | -2.6 |
| A29U C94A A111U | -0.272 |
| U32C A90G C97A U130G | -5.05 |
| A29U G47C C73G U109A | -0.853 |
| C31A A95U | -5.15 |
| C34A A50C | -3.5 |
| C28U G110U | -1.44 |
| U30C G42U G60A | -5.14 |
| C34A C123A U132C | -2.13 |
| C28U C79U | -1.61 |
| A29G G61A G93A C102G G117C | -7.25 |

| Variant | polymerase ribozyme fitness (log ratio) |
| --- | --- |
| C28U C53A G93U | -4.15 |
| C31U U59C G120U G127C | -5.99 |
| C34A G48A C73U C101A | -4.83 |
| A29C G36U A43U G44A G69U A121C | -2.34 |
| A29U G52A G113A | -2.09 |
| C34A C40U G48C C114U G120C | -3.6 |
| U33G G60U C85G | -7.61 |
| C28U C124A U125A | -0.0946 |
| A29C A41C G61U | -3.33 |
| C34A C62U | -2.79 |
| U30C C72A | -2.24 |
| C28U U96G | -2.43 |
| A29U A83G C86U | -2.72 |
| C31U C124U | -3.64 |
| U32G A103G C104A C123A | -6.74 |
| C31G C85U C123U | -5.56 |
| A29C C62A C124G U129C | -3.09 |
| A29U G44A U59A A103C U112C | -5.66 |
| A29C C70U A118G | -2.26 |
| U32C G120C | 1.83 |
| A29U A43G U54C G63A G117C | -7.13 |
| C31U A46C G47U C98A G120C | -7.6 |
| C28U U112C U131A | -0.425 |
